Source: PMC6362186, “Isolation and biochemical characterization of a metagenome-derived 3-deoxy-D-arabino-heptulosonate-7-phosphate synthase gene from subtropical marine mangrove wetland sediments” (AMB Express, 2019)

System: T1, C=C(OP(=O)(O)O)C(=O)O
T1 construct: His-tagged from pET-30a(+) HindIII/XhoI, tag removal not mentioned, ~37 kDa on SDS-PAGE; E. coli Rosetta (DE3), Ni resin; tetramer only by homology model
Assay: purified protein
Format: biochemical, uncultured bacterium
Details: co-substrate D-erythrose 4-phosphate, optimal conditions pH 8.0, 40 °C, CoCl2 0.1 mM in standard assay, PEP range printed as 0.1–0.5 μM

In the case of Aro1A (uncultured bacterium), the Km is reported as 19.58 µM and the kcat is reported as 17.3 s⁻¹.
